How the values were obtained:
Test in all cases: fluorescence anisotropy
[1] = target: NusB (Escherichia coli, UniProt P0A780 1-139)
[2] = target: NusB D118N (NusB101) (Escherichia coli, UniProt P0A780 1-139, D118N)
[3] = target: NusB D118R (Escherichia coli, UniProt P0A780 1-139, D118R)
[4] = target: NusB D118A (Escherichia coli, UniProt P0A780 1-139, D118A)
[5] = target: NusB D118K (Escherichia coli, UniProt P0A780 1-139, D118K)
[6] = target: NusB K2E (Escherichia coli, UniProt P0A780 1-139, K2E)

Binder	Kd [1] [nM]	binding result [2]	binding result [1]	Kd [2] [nM]	also measured
CGCUAUUACACAUUCCA (ssRNA) [nutR BoxA16-spacer (C38A)]	5100 ± 1400				
AAAAUUAA (ssRNA) [nutL spacer]		no binding	no binding		
CGCUCUUA (ssRNA) [nutR BoxA]	1600 ± 100			290 ± 15	
UGCUCUUUA (ssRNA) [rrnG BoxA]	200 ± 10			50 ± 15	
AUAGCGGCCACAUUCCA (ssRNA) [nutR BoxA69-spacer (boxA transversion)]		no binding	no binding		
CACAUUCCA (ssRNA) [nutR spacer]		no binding	no binding		
CGCUCUUACACAUUCCA (ssRNA) [nutR BoxA-spacer]					binding result [3]: no binding; binding result [4]: no binding; binding result [5]: no binding
CACUGCUCUUUAACAAUUA (ssRNA) [rrnG BoxA-spacer]	130 ± 20			24 ± 4	Kd [6]: 3600 nM
CGCUCGUACACAUUCCA (ssRNA) [nutR BoxA(U39G)-spacer]	1600 ± 800				
CGCUCUUAAAAAUUAA (ssRNA) [nutL BoxA-spacer]	2200 ± 800				Kd [6]: 5100 nM

Reference: publication PMC2800207
